# Source: publication PMC9202080, “Evolution of homo‐oligomerization of methionine S‐adenosyltransferases is replete with structure–function constrains” (Protein Science : A Publication of the Protein Society, 2022)
# Numbering of substitutions follows the chain as printed. Names may count otherwise.
# T1: NgMAT (Neisseria gonorrhoeae, UniProt Q5FAC0)
# T1 construct: gene metK; full length, C-terminal His6 tag, codon-optimised synthetic gene, E. coli BL21(DE3), dimer without substrates, functional homotetramer with substrates
# T1 sequence (Q5FAC0 1-389): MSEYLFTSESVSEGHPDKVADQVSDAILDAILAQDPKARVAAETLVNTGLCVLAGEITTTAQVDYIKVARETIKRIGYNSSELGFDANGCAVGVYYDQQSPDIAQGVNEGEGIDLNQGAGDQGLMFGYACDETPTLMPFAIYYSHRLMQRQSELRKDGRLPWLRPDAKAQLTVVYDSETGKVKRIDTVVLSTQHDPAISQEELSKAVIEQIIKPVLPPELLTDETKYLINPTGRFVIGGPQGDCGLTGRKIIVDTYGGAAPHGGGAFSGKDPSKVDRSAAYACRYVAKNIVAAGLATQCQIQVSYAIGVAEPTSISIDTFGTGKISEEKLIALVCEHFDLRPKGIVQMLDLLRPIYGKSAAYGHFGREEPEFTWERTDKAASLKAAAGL
# B1: Escherichia coli methionine S-adenosyltransferase (enzyme)
# chain: AKHLFTSESVSEGHPDKIADQISDAVLDAILEQDPKARVACETYVKTGMVLVGGEITTSAWVDIEEITRNTVREIGYVHSDMGFDANSCAVLSAIGKQSPDINQGVDRADPLEQGAGDQGLMFGYATNETDVLMPAPITYAHRLVQRQAEVRKNGTLPWLRPDAKSQVTFQYDDGKIVGIDAVVLSTQHSEEIDQKSLQEAVMEEIIKPILPAEWLTSATKFFINPTGRFVIGGPMGDCGLTGRKIIVDTYGGMARHGGGAFSGKDPSKVDRSAAYAARYVAKNIVAAGLADRCEIQVSYAIGVAEPTSIMVETFGTEKVPSEQLTLLVREFFDLRPYGLIQMLDLLHPIYKETAAYGHFGREHFPWEKTDKAQLLRDAAGLK
# notes: methionine S-adenosyltransferase (MAT) of Escherichia coli; Homotetramer (dimer of dimers) in solution; the self-association rows are of this chain with itself; also called EcMAT; E. coli MAT; source: E. coli BL21 (DE3), pET24a, purified (Ni-NTA)
# B2: Neisseria gonorrhoeae methionine S-adenosyltransferase (enzyme, UniProt B4RQ36 1-389, looked up)
# chain: T1 sequence (Q5FAC0 1-389) with Q200H
# notes: methionine S-adenosyltransferase of Neisseria gonorrhoeae; also called NgMAT; N. gonorrhoeae MAT; source: E. coli BL21 (DE3), pET24a, purified (Ni-NTA)
# B3: Escherichia coli methionine S-adenosyltransferase E67K K98Q (enzyme)
# chain: MAKHLFTSESVSEGHPDKIADQISDAVLDAILEQDPKARVACETYVKTGMVLVGGEITTSAWVDIEKITRNTVREIGYVHSDMGFDANSCAVLSAIGQQSPDINQGVDRADPLEQGAGDQGLMFGYATNETDVLMPAPITYAHRLVQRQAEVRKNGTLPWLRPDAKSQVTFQYDDGKIVGIDAVVLSTQHSEEIDQKSLQEAVMEEIIKPILPAEWLTSATKFFINPTGRFVIGGPMGDCGLTGRKIIVDTYGGMARHGGGAFSGKDPSKVDRSAAYAARYVAKNIVAAGLADRCEIQVSYAIGVAEPTSIMVETFGTEKVPSEQLTLLVREFFDLRPYGLIQMLDLLHPIYKETAAYGHFGREHFPWEKTDKAQLLRDAAGLK
# notes: methionine S-adenosyltransferase (MAT) of Escherichia coli with the salt-bridge residues of the small interface swapped to those of NgMAT; made from the EcMAT construct by site directed mutagenesis; also called EcMATmut; E. coli E67K K98Q; source: E. coli BL21 (DE3), pET24a, purified (Ni-NTA)
# B4: Lactiplantibacillus plantarum methionine S-adenosyltransferase (enzyme, UniProt Q88XB8 1-395, looked up)
# chain: MSERHLFTSESVSEGHPDKIADQISDAILDAMLAQDPQARVAVETSVTTGLVLVFGEVSTKAYVDIQKVVRDTIKSIGYVDGQYGFDGDNCAVLVSLDEQSPDIAQGVDDSLETRSGDADPLDQIGAGDQGMMFGYAINETPELMPLPIALSHRLMRKIAALRKDGTIKWLRPDAKAQVTVEYDEDNQPKRIDTVVLSTQHDPDVDLDTIRQTVIDQVIKAVLPADLLDDQTKYLVNPTGRFVIGGPQGDAGLTGRKVIVDTYGGFAHHGGGAFSGKDATKVDRSASYAARYIAKNVVAAGLADQVEVQLAYAIGVAEPVSIAVDTAGTGKVSDEALINAIRENFDLRPAGIIKMLDLQRPIYRQTAAYGHFGRTDIDLPWEHTDKVDALKAVFK
# notes: also called LpMAT; MAT from Lactiplantibacillus planatrum; source: E. coli BL21 (DE3), pET24a, purified (Ni-NTA)
# Assays:
# NgMAT [1] = target: T1, NgMAT; assay: size exclusion chromatography, ligand-induced tetramerization; type: binding; settings: 10 uM NgMAT; AMP-PNP alone or with methionine
# NgMAT [2] = target: T1, NgMAT; assay: SAM formation, size exclusion chromatography; type: biochemical
# [3] = target: the molecule itself; assay: SEC; diluted from ~300 μM stocks to 10 μM, incubated 100 hr at 25°C in 50% glycerol, sampled by SEC until equilibrium (~75 hr); Kd calculated from the tetrameric fraction; tetramer to dimers
# [4] = target: the molecule itself; assay: SEC; Superdex 200 Increase, 25 mM TrisHCl, 150 mM KCl, 1 mM DTT; protein diluted from a 300 μM stock, pre-incubated diluted for an hour, then injected; EcMAT 1.56–100 μM, NgMAT 10–100 μM; no substrates
# [5] = target: the molecule itself; assay: SEC; 10 μM NgMAT pre-incubated with saturated methionine alone or ATP alone
# [6] = target: the molecule itself; assay: SEC; 10 μM NgMAT pre-incubated with saturated methionine and ATP together
# [7] = target: the molecule itself; assay: crystal structure; EcMATmut + 5 mM AMPPNP + 5 mM methionine, 1.6 Å, space group P42212, one copy in the asymmetric unit
# [8] = target: the molecule itself; assay: crystal structure; LpMAT + 5 mM AMPPNP + 5 mM methionine, 2.82 Å, space group P1, eight copies in the asymmetric unit
molecule,measurement,setting,value
Nc1ncnc2c1ncn2[C@@H]1O[C@H](COP(=O)(O)OP(=O)(O)NP(=O)(O)O)[C@@H](O)[C@H]1O [AMP-PNP],"size exclusion chromatography, ligand-induced tetramerization",NgMAT [1],We found that AMP‐PNP increased the tetrameric species substantially
Nc1ncnc2c1ncn2[C@@H]1O[C@H](COP(=O)(O)OP(=O)(O)OP(=O)(O)O)[C@@H](O)[C@H]1O [ATP],"SAM formation, size exclusion chromatography",NgMAT [2]; 10 uM NgMAT with methionine,in the presence of both substrates we saw a marked shift of NgMAT toward tetramerization
CSCC[C@H](N)C(=O)O [methionine],"SAM formation, size exclusion chromatography",NgMAT [2]; 10 uM NgMAT with ATP,in the presence of both substrates we saw a marked shift of NgMAT toward tetramerization
B1,Kd,[3],8.2 µM
same,stoichiometry N,[4],4
B2,stoichiometry N,[5],2
same,stoichiometry N,[6],4
B3,stoichiometry N,[7],4
same,Kd,[3],90.3 µM
B4,stoichiometry N,[8],2
